Reference: the supplement of paper PMC9112550, “Optimization of the antimicrobial peptide Bac7 by deep mutational scanning” (BMC Biology, 2022)

The sequences below were run on Escherichia coli TOP10 (assay: shrunken log2 fold change of peptide-encoding DNA abundance (4.5 h post-induction vs induction); higher = less antimicrobial activity (less host growth inhibition)). Conditions: time post-induction: 4.5 h; library: site-saturation at positions 5, 18, 19, 20.
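Note: peptides expressed intracellularly from a pBAD plasmid library in pooled LB shake-flask culture, induced with 0.3% L-arabinose, DNA abundance read by NGS, three biological replicates, DESeq2 with apeglm shrinkage.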

In order of rising “shrunken log2 fold change” value:
1. RRIRCRPPRLPRPRPRPYDFPRP  -0.894
2. RRIRNRPPRLPRPRPRPQKDPRP  -0.564
3. RRIRCRPPRLPRPRPRPTKDPRP  -0.489
4. RRIRPRPPRLPRPRPRPSSPPRP  -0.406
5. RRIRYRPPRLPRPRPRPSNFPRP  -0.368
6. RRIRRRPPRLPRPRPRPAYLPRP  -0.35
7. RRIRRRPPRLPRPRPRPLYQPRP  -0.315
8. RRIRPRPPRLPRPRPRPCFSPRP  -0.304
9. RRIRRRPPRLPRPRPRPVYPPRP  -0.284
10. RRIRARPPRLPRPRPRPSFNPRP  -0.268
11. RRIRFRPPRLPRPRPRPNLSPRP  -0.259
12. RRIRIRPPRLPRPRPRPWLSPRP  -0.238
13. RRIRPRPPRLPRPRPRPQHQPRP  -0.226
14. RRIRIRPPRLPRPRPRPSEKPRP  -0.195
15. RRIRQRPPRLPRPRPRPAYPPRP  -0.167
16. RRIRNRPPRLPRPRPRPFKLPRP  -0.155
17. RRIRNRPPRLPRPRPRPQTTPRP  -0.149
18. RRIRYRPPRLPRPRPRPFCGPRP  -0.133
19. RRIRIRPPRLPRPRPRPRGHPRP  -0.114
20. RRIRMRPPRLPRPRPRPHFPPRP  -0.106
21. RRIRMRPPRLPRPRPRPFVMPRP  -0.0957
22. RRIRHRPPRLPRPRPRPLTAPRP  -0.0931
23. RRIRDRPPRLPRPRPRPHEMPRP  -0.0853
24. RRIRTRPPRLPRPRPRPETIPRP  -0.0605
25. RRIRARPPRLPRPRPRPRHNPRP  -0.0548
26. RRIRSRPPRLPRPRPRPWWKPRP  -0.0475
27. RRIRKRPPRLPRPRPRPSYFPRP  -0.029
28. RRIRYRPPRLPRPRPRPVRLPRP  -0.0236
29. RRIRCRPPRLPRPRPRPMVFPRP  -0.0164
30. RRIRDRPPRLPRPRPRPWGNPRP  -0.0163
31. RRIRIRPPRLPRPRPRPMVKPRP  -0.0157
32. RRIRVRPPRLPRPRPRPHQFPRP  -0.0147
33. RRIRLRPPRLPRPRPRPNSIPRP  -0.0133
34. RRIRQRPPRLPRPRPRPGKTPRP  -0.00992
35. RRIRDRPPRLPRPRPRPWLHPRP  -0.00955
36. RRIRNRPPRLPRPRPRPNMGPRP  -0.00804
37. RRIRYRPPRLPRPRPRPEISPRP  -0.00407
38. RRIRWRPPRLPRPRPRPDKRPRP  -0.00125
39. RRIRNRPPRLPRPRPRPNAWPRP  0.000665
40. RRIRERPPRLPRPRPRPWKMPRP  0.00355
41. RRIRKRPPRLPRPRPRPKQAPRP  0.00509
42. RRIRERPPRLPRPRPRPKTPPRP  0.0131
43. RRIRGRPPRLPRPRPRPWQGPRP  0.015
44. RRIRPRPPRLPRPRPRPQTEPRP  0.0275
45. RRIRQRPPRLPRPRPRPMRDPRP  0.0311
46. RRIRQRPPRLPRPRPRPDISPRP  0.0318
47. RRIRSRPPRLPRPRPRPQDMPRP  0.035
48. RRIRYRPPRLPRPRPRPTQGPRP  0.0351
49. RRIRPRPPRLPRPRPRPYTMPRP  0.0535
50. RRIRRRPPRLPRPRPRPYSVPRP  0.0601
51. RRIRDRPPRLPRPRPRPYCWPRP  0.085
52. RRIRQRPPRLPRPRPRPSATPRP  0.0854
53. RRIRHRPPRLPRPRPRPGGDPRP  0.0994
54. RRIRKRPPRLPRPRPRPGDCPRP  0.106
55. RRIRGRPPRLPRPRPRPHIGPRP  0.109
56. RRIRNRPPRLPRPRPRPCQEPRP  0.15
57. RRIRWRPPRLPRPRPRPRLSPRP  0.154
58. RRIRERPPRLPRPRPRPQICPRP  0.172
59. RRIRLRPPRLPRPRPRPPIQPRP  0.174
60. RRIRWRPPRLPRPRPRPIGTPRP  0.175
61. RRIRLRPPRLPRPRPRPRPDPRP  0.177
62. RRIRDRPPRLPRPRPRPQAYPRP  0.18
63. RRIRCRPPRLPRPRPRPGMGPRP  0.223
64. RRIRMRPPRLPRPRPRPTNEPRP  0.282
65. RRIRHRPPRLPRPRPRPTYWPRP  0.293
66. RRIRARPPRLPRPRPRPKMGPRP  0.297
67. RRIRYRPPRLPRPRPRPPWRPRP  0.331
68. RRIRARPPRLPRPRPRPFWRPRP  0.36
69. RRIRWRPPRLPRPRPRPRGEPRP  0.397
70. RRIRKRPPRLPRPRPRPRCFPRP  0.412
71. RRIRRRPPRLPRPRPRPSVAPRP  0.478
72. RRIRWRPPRLPRPRPRPPWWPRP  0.674
73. RRIRARPPRLPRPRPRPLLGPRP  1.07
74. RRIRWRPPRLPRPRPRPMTWPRP  2.14
75. RRIRMRPPRLPRPRPRPLRTPRP  3.45
